This is an account of results in patent US20200109169A1 (BGI SHENZHEN, published 2020).

B1: mutant polypeptide TLAFLIFNI (SEQ ID NO: 1) (peptide)
peptide: TLAFLIFNI
notes: Made by solid phase synthesis, purity >90% by HPLC

The target of the assay is T1, HLA-A0201 on the surface of T2 cells (human).
T1 construct: MHC class I molecule on T2 cells; surface HLA-A*02:01 was read with an anti-HLA-A*02:01 FITC monoclonal antibody after overnight loading with peptide
In words: T2 cell peptide loading, flow cytometry with anti-HLA-A*02:01 FITC antibody, peptide 100 uM. (A flow cytometer gives signals particle by particle.)
Experimental: After centrifugation at 200 g for 5 minutes for cell collection, the collected cells were washed with phosphate buffer saline (PBS) buffer twice, before incubated with anti-HLA-A*02:01 FITC monoclonal antibody at 4° C. for 30 minutes. The mean fluorescence intensity of cells was then detected and analyzed by the flow cytometry (BD FACSJazz™)) and its software.
As for PLAFLIFNI (Made by solid phase synthesis) [wild-type polypeptide PLAFLIFNI (SEQ ID NO: 7)], the “FI (fluorescence index)” value is 1.63 and the Mean fluorescence intensity was 650.

As to TMAFLIFNV (Made by solid phase synthesis) [mutant polypeptide's variant TMAFLIFNV (SEQ ID NO: 6)], the “FI (fluorescence index)” value stood at 1.74 and the Mean fluorescence intensity came to 677.

On to TMAFLIFNI (Made by solid phase synthesis) [mutant polypeptide's variant TMAFLIFNI (SEQ ID NO: 2)], for which the “FI (fluorescence index)” value worked out at 1.67 and the Mean fluorescence intensity was found to be 660.

Regarding B1, the “FI (fluorescence index)” value amounted to 1.6 and the Mean fluorescence intensity is 643.

For the molecule TMAFLIFNL (Made by solid phase synthesis) [mutant polypeptide's variant TMAFLIFNL (SEQ ID NO: 5)], the “FI (fluorescence index)” value came out at 1.79 and the Mean fluorescence intensity was 690.

In the case of TLAFLIFNL (Made by solid phase synthesis) [mutant polypeptide's variant TLAFLIFNL (SEQ ID NO: 4)], the “FI (fluorescence index)” value amounted to 1.49 and the Mean fluorescence intensity worked out at 615.

Regarding TLAFLIFNV (Made by solid phase synthesis) [mutant polypeptide's variant TLAFLIFNV (SEQ ID NO: 3)], the “FI (fluorescence index)” value came out at 1.51 and the Mean fluorescence intensity was found to be 620.
